{"source": "patent US20110118172A1", "about": "(Takeda / Millennium, published 2011)", "note": "Non-standard residues stand in square brackets, D forms with d. No end group written: not given here. *: point of attachment. benzylureido = benzylcarbamoyl on the N-terminal amino group, O=C(NCc1ccccc1)*; amidino = amidino group on the N-terminal amino group, N=C(N)*; Pro(trans-4-F) = O=C(O)[C@@H]1C[C@@H](F)CN1; Arg(Me) = CNC(=N)NCCC[C@H](N)C(=O)O; Dap(CONH2) = NC(=O)NC[C@H](N)C(=O)O; Hyp = O=C(O)[C@@H]1C[C@@H](O)CN1; Cha = N[C@@H](CC1CCCCC1)C(=O)O; dCha = N[C@H](CC1CCCCC1)C(=O)O; Decanoyl = CCCCCCCCCC(=O)*; Carbamoyl = NC(=O)*; azaGly = NNC(=O)O; Ms = CS(=O)(=O)*", "data": [{"biological_target": "metastin receptor (OT7T175) stably expressed on CHO cells", "test": "cell-based or functional assay", "units": {"Specific Activity: EC50 of the test compound based on EC50 of Metastin (45-54); agonist activity by change in intracellular calcium ion level (Fluo-4 NW, FLIPR) in receptor-expressing CHO cells": "ratio"}, "values": [{"binder": "Ms-[dY][Hyp]NTF[azaGly]L[Arg(Me)]W-NH2 (SMILES CNC(=N)NCCC[C@H](NC(=O)[C@H](CC(C)C)NC(=O)NNC(=O)[C@H](Cc1ccccc1)NC(=O)[C@@H](NC(=O)[C@H](CC(N)=O)NC(=O)[C@@H]1C[C@@H](O)CN1C(=O)[C@@H](Cc1ccc(O)cc1)NS(C)(=O)=O)[C@@H](C)O)C(=O)N[C@@H](Cc1c[nH]c2ccccc12)C(N)=O)", "note": "[Compound No. 963: des(1)-Ms-[D-Tyr2,Hyp3,Thr5,AzaGly7,Arg(Me)9,Trp10]MS10]", "Specific Activity: EC50 of the test compound based on EC50 of Metastin (45-54); agonist activity by change in intracellular calcium ion level (Fluo-4 NW, FLIPR) in receptor-expressing CHO cells": 0.9}, {"binder": "Ac-[dY][Hyp][Dap(CONH2)]T[dCha]GL[Arg(Me)]W-NH2 (also: Gly7-Leu8 -CONH- replaced by (E)-CH=CH-)", "note": "[Compound No. 975: des(1)-Ac-[D-Tyr2,Hyp3,Alb4,Thr5,D-Cha6,Gly7ψ((E)CH=CH)Leu8,Arg(Me)9,Trp10]MS10]", "Specific Activity: EC50 of the test compound based on EC50 of Metastin (45-54); agonist activity by change in intracellular calcium ion level (Fluo-4 NW, FLIPR) in receptor-expressing CHO cells": 2.3}, {"binder": "Ac-[dY][Hyp][Dap(CONH2)]T[Cha]G[dL][Arg(Me)]W-NH2 (also: Gly7-D-Leu8 -CONH- replaced by (E)-CH=CH-)", "note": "[Compound No. 976: des(1)-Ac-[D-Tyr2,Hyp3,Alb4,Thr5,Cha6,Gly7ψ((E)CH=CH)D-Leu8,Arg(Me)9,Trp10]MS10]", "Specific Activity: EC50 of the test compound based on EC50 of Metastin (45-54); agonist activity by change in intracellular calcium ion level (Fluo-4 NW, FLIPR) in receptor-expressing CHO cells": 1}, {"binder": "[Hyp]NTF[azaGly]L[Arg(Me)]W-NH2 (N-terminus assumed; SMILES CNC(=N)NCCC[C@H](NC(=O)[C@H](CC(C)C)NC(=O)NNC(=O)[C@H](Cc1ccccc1)NC(=O)[C@@H](NC(=O)[C@H](CC(N)=O)NC(=O)[C@@H]1C[C@@H](O)CN1)[C@@H](C)O)C(=O)N[C@@H](Cc1c[nH]c2ccccc12)C(N)=O)", "note": "[Compound No. 977: des(1-2)-[Hyp3,Thr5,AzaGly7,Arg(Me)9,Trp10]MS10]", "Specific Activity: EC50 of the test compound based on EC50 of Metastin (45-54); agonist activity by change in intracellular calcium ion level (Fluo-4 NW, FLIPR) in receptor-expressing CHO cells": 1.7}, {"binder": "Ac-[dY][Hyp][Dap(CONH2)]T[Cha]GL[Arg(Me)]W-NH2 (also: Gly7-Leu8 -CONH- replaced by (E)-CMe=CH-)", "note": "[Compound No. 986: des(1)-Ac-[D-Tyr2,Hyp3,Alb4,Thr5,Cha6,Gly7ψ((E)CMe=CH)Leu8,Arg(Me)9,Trp10]MS10]", "Specific Activity: EC50 of the test compound based on EC50 of Metastin (45-54); agonist activity by change in intracellular calcium ion level (Fluo-4 NW, FLIPR) in receptor-expressing CHO cells": 0.3}, {"binder": "Decanoyl-[dY][Hyp]NTF[azaGly]L[Arg(Me)]W-NH2 (SMILES CCCCCCCCCC(=O)N[C@H](Cc1ccc(O)cc1)C(=O)N1C[C@H](O)C[C@H]1C(=O)N[C@@H](CC(N)=O)C(=O)N[C@H](C(=O)N[C@@H](Cc1ccccc1)C(=O)NNC(=O)N[C@@H](CC(C)C)C(=O)N[C@@H](CCCNC(=N)NC)C(=O)N[C@@H](Cc1c[nH]c2ccccc12)C(N)=O)[C@@H](C)O)", "note": "[Compound No. 965: des(1)-decanoyl[D-Tyr2,Hyp3,Thr5,AzaGly7,Arg(Me)9,Trp10]MS10]", "Specific Activity: EC50 of the test compound based on EC50 of Metastin (45-54); agonist activity by change in intracellular calcium ion level (Fluo-4 NW, FLIPR) in receptor-expressing CHO cells": 4.1}, {"binder": "benzylureido-[dY][Hyp]NTF[azaGly]L[Arg(Me)]W-NH2 (SMILES CNC(=N)NCCC[C@H](NC(=O)[C@H](CC(C)C)NC(=O)NNC(=O)[C@H](Cc1ccccc1)NC(=O)[C@@H](NC(=O)[C@H](CC(N)=O)NC(=O)[C@@H]1C[C@@H](O)CN1C(=O)[C@@H](Cc1ccc(O)cc1)NC(=O)NCc1ccccc1)[C@@H](C)O)C(=O)N[C@@H](Cc1c[nH]c2ccccc12)C(N)=O)", "note": "[Compound No. 966: des(1)-Benzylureido-[D-Tyr2,Hyp3,Thr5,AzaGly7,Arg(Me)9,Trp10]MS10]", "Specific Activity: EC50 of the test compound based on EC50 of Metastin (45-54); agonist activity by change in intracellular calcium ion level (Fluo-4 NW, FLIPR) in receptor-expressing CHO cells": 1.9}, {"binder": "Carbamoyl-[dY][Hyp]NTF[azaGly]L[Arg(Me)]W-NH2 (SMILES CNC(=N)NCCC[C@H](NC(=O)[C@H](CC(C)C)NC(=O)NNC(=O)[C@H](Cc1ccccc1)NC(=O)[C@@H](NC(=O)[C@H](CC(N)=O)NC(=O)[C@@H]1C[C@@H](O)CN1C(=O)[C@@H](Cc1ccc(O)cc1)NC(N)=O)[C@@H](C)O)C(=O)N[C@@H](Cc1c[nH]c2ccccc12)C(N)=O)", "note": "[Compound No. 967: des(1)-Ureido-[D-Tyr2,Hyp3,Thr5,AzaGly7,Arg(Me)9,Trp10]MS10]", "Specific Activity: EC50 of the test compound based on EC50 of Metastin (45-54); agonist activity by change in intracellular calcium ion level (Fluo-4 NW, FLIPR) in receptor-expressing CHO cells": 0.6}, {"binder": "Ac-[dY][Hyp]NT[Cha][azaGly]L[Arg(Me)]W-NH2", "note": "[Compound No. 969: des(1)-Ac-[D-Tyr2,Hyp3,Thr5,Cha6,AzaGly7,Arg(Me)9,Trp10]MS10]", "Specific Activity: EC50 of the test compound based on EC50 of Metastin (45-54); agonist activity by change in intracellular calcium ion level (Fluo-4 NW, FLIPR) in receptor-expressing CHO cells": 0.3}, {"binder": "Ac-[dY][Pro(trans-4-F)]NT[Cha][azaGly]L[Arg(Me)]W-NH2", "note": "[Compound No. 970: des(1)-Ac-[D-Tyr2,Pro(4F)3,Thr5,Cha6,AzaGly7,Arg(Me)9,Trp10]MS10]", "Specific Activity: EC50 of the test compound based on EC50 of Metastin (45-54); agonist activity by change in intracellular calcium ion level (Fluo-4 NW, FLIPR) in receptor-expressing CHO cells": 0.6}, {"binder": "amidino-[dY][Hyp]NTF[azaGly]L[Arg(Me)]W-NH2 (SMILES CNC(=N)NCCC[C@H](NC(=O)[C@H](CC(C)C)NC(=O)NNC(=O)[C@H](Cc1ccccc1)NC(=O)[C@@H](NC(=O)[C@H](CC(N)=O)NC(=O)[C@@H]1C[C@@H](O)CN1C(=O)[C@@H](Cc1ccc(O)cc1)NC(=N)N)[C@@H](C)O)C(=O)N[C@@H](Cc1c[nH]c2ccccc12)C(N)=O)", "note": "[Compound No. 971: des(1)-Amidino-[D-Tyr2,Hyp3,Thr5,AzaGly7,Arg(Me)9,Trp10]MS10]", "Specific Activity: EC50 of the test compound based on EC50 of Metastin (45-54); agonist activity by change in intracellular calcium ion level (Fluo-4 NW, FLIPR) in receptor-expressing CHO cells": 0.4}]}]}
